According to PMC8715119, “Second-generation non-hematopoietic erythropoietin-derived peptide for neuroprotection” (Redox Biology, 2021):

Experiments:
cleaved Parp1 = test: Immunoblot of cleaved Parp1 after hypoxia and re-oxygenation; assay type: cell-based, mouse; details: HT-22 cells; reEPO 0.5 IU/ml, ML1-h3 1 ng/ml; normalized by β-Actin; n = 6
Description: (§1) PC12 or HT-22 cells were lysed in 100 mM Tris-Cl (pH 6.8) with 4% SDS. The lysates were loaded onto sodium dodecyl sulfate-polyacrylamide gel electrophoresis (SDS-PAGE) (8–10%), and the proteins were transferred onto the nitrocellulose membrane. The membrane was blocked with 0.1% TBST and 5% non-fat dry milk at 25°C for 30 min. Primary antibodies were diluted in 0.1% TBST and 3% bovine serum albumin (BSA). The primary antibodies included anti-pJAK2 (#3776, Cell Signaling Technology, USA), anti-JAK2 (#3230, Cell Signaling Technology, USA), anti-pSTAT5 (#9351, Cell Signaling Technology, USA), anti-STAT5 ([…], Cell Signaling Technology, USA), anti-pAKT (#9271, Cell Signaling Technology, USA), anti-AKT (#9272, Cell Signaling Technology, USA), anti-pERK (#9101, Cell Signaling Technology, USA) anti-ERK (#9102, Cell Signaling Technology, USA), anti-EPOR (#sc-365662, Santa Cruz Biotechnology, USA), anti-β-Actin (Santa Cruz Biotechnology, USA), anti-Bax (Santa Cruz Biotechnology, USA), anti-cleaved Casp3 (Cell Signaling Technology, USA), and anti-cleaved Parp1 (Cell Signaling Technology, USA).
(§2) The HT-22 cells were seeded onto 96-well or 6-well plates. The next day, HT-22 cells were placed inside a sealed air-tight container consisting of an anaeropack (Mitsubishi Gas Company, Tokyo, Japan), which can induce a hypoxic atmosphere by absorbing oxygen and generating carbon dioxide. […]

[1] = tested on: differentiated neuronal PC12 cells; test: Cellular ROS level by H2DCFDA under H2O2; assay type: cell-based, rat; details: H2O2 for 6 h; H2DCFDA staining; n = 5; Fig. 4b
Description: (§3) PC12 cells (#CRL-1721, ATCC, USA), a rat pheochromocytoma cell line derived from the adrenal medulla (#CRL-1721, ATCC, USA), were seeded on a dish, which was coated by poly L-lysine (0.01%; Sigma Chemical Co., USA), and grown in RPMI 1640 medium (#11875093, Gibco, USA), supplemented with 10% heat-inactivated horse serum (#26050088, Gibco, USA), 5% fetal bovine serum (FBS) (#SH30919.03, Hyclone, USA), and 1% penicillin/streptomycin at 37°C with 5% CO2. For neuronal differentiation, PC12 cells were plated at a density of 1.25x10^3 cell/cm^2 into 96-well plates coated with collagen 1 (#354236, BD Biosciences, USA) and grown in RPMI 1640 medium supplemented with 50 ng/ml nerve growth factor (NGF) (BD Biosciences, USA) and 0.5% FBS for 10 days. The NGF-supplemented media was replaced with fresh media every 3 days during neuronal differentiation.
The cellular ROS level was measured using 2′,7′-dichlorodihydrofluorescein diacetate (H2DCFDA) (#D399, Invitrogen, USA). The cells were incubated with 5 μM H2DCFDA in PBS for 30 min, washed with PBS, and then resuspended in the medium for 2 h. After treatment of H2O2 without or with reEPO, or peptide, we monitored the oxidative stress by measuring the fluorescence intensities of H2DCFDA by using excitation and emission wavelengths of 485 nm and 535 nm, respectively.

male mice (C57BL/6 N) = test: Measurement of the hematopoietic effect after repeated subcutaneous injection; assay type: in vivo; details: mouse, three times a week for four weeks, reEPO 150 IU/kg, ML1-h3 0.2 mg/kg
Description: The protocol of this experiment was approved by the Animal Care and Use Committee of the DGIST (DGIST-IACUC-21090804-0000). After two weeks for quarantine and acclimatization, male mice (C57BL/6 N, Koatech, Korea) were subcutaneously injected with vehicle (n = 6), reEPO (n = 6, 150 IU/kg), or ML1-h3 (n = 6, 0.2 mg/kg) three times a week for four weeks. After three days of final injection, they were anesthetized by injection of zoletil (50 mg/kg), and their blood was gathered from posterior vena cava into an EDTA-coated tube (#367863, BD Vacutainer, USA) using a syringe. The blood samples were analyzed by an automatic hematology analyzer (#ADIVIA 2120i, SIEMENS Healthineers, Germany) in DGMIF (Korea).

cleaved Caspase 3 = test: Immunoblot of cleaved Caspase 3 after hypoxia and re-oxygenation; assay type: cell-based, mouse; details: HT-22 cells; reEPO 0.5 IU/ml, ML1-h3 1 ng/ml; normalized by β-Actin; n = 6
Description: as §1, §2

[2] = tested on: differentiated neuronal PC12 cells; test: Cell viability (MTS) under H2O2-induced oxidative stress; assay type: cell-based, rat; details: H2O2 for 24 h; reEPO 0.5 IU/ml, ML1 1 ng/ml or ML1 analogs; n = 5; Fig. 4a
Description: as §3
Cell viability was evaluated by 3-[(4,5-dimethylthiazol-2-yl)-5,3-carboxymethoxyphenyl]-2-(4-sulfophenyl)-2H tetrazolium, inner salt (MTS) reduction assay (CellTiter 96 Aqueous One Solution Cell Proliferation Assay, Promega, Madison, WI, USA). Briefly, differentiated neuronal-PC12 cells were treated with H2O2 (300 μM) with or without reEPO and peptides for 24 h. The PC12 cells were washed with PBS; 20 ul MTS solution was added to each well with 100 μl PBS, and the cells were incubated for 3 h at 37°C and 5% CO2. The intracellular soluble formazan produced by cellular reduction of the MTS was determined by recording the absorbance at 490 nm using a microplate reader (VersaMax, Molecular Devices, USA). Cell proliferation was also evaluated by the MTS assay. Undifferentiated PC12 cells were seeded into a 96-well plate (5x10^4 cells/well). The next day, the initial cell number was counted; after 48 h, under low FBS concentration (0.5%), with or without reEPO and peptides, cell number was measured by the MTS assay.

EPOR = test: Time-series immunoblot of EPOR protein level; assay type: cell-based, rat; details: PC12 cells; 1 nM; normalized by β-Actin; n = 3
Description: as §1

## reEPO: Recombinant human EPO (Epoetin-α, CJ HealthCare Corporation)
Cleaved Parp1
  Level of cleaved Parp1 under H/R: efficiently reduced the levels of Bax, cleaved Caspase 3, and cleaved Parp1
[1]
  Level of reactive oxygen species (ROS) induced by H2O2: decreased the levels of reactive oxygen species (ROS)
Male mice (C57BL/6 N); n = 6
  Body weight: No significant difference
Male mice (C57BL/6 N); n = 6, versus vehicle
  Cell number of platelet: did not significantly affect
  Content of haemoglobin: dramatically increased
  Hematocrit level: dramatically increased
  Number of erythrocytes: dramatically increased
  Number of granulocytes, including neutrophils and eosinophils: considerably decreased
  Number of lymphocytes: did not significantly affect
  Number of monocytes: did not significantly affect
  Number of reticulocytes: dramatically increased
  Total number of white blood cells: did not significantly affect
Cleaved Caspase 3
  Level of cleaved Caspase 3 under H/R: efficiently reduced the levels of Bax, cleaved Caspase 3
[2]
  Cell death under H2O2-induced oxidative stress (cell viability): significantly suppressed the cell death
EPOR
  Level of EPOR protein over time: gradually decreased by reEPO for 15–45 min, and subsequently, it rapidly recovered to the basal level at 60 min
